Test system: Hirudin (Calbiochem 377853)

## thrombin activated from 10% human plasma on HUVEC monolayers
  cleavage of the chromogenic thrombin substrate (absorbance at 405 nm): completely blocked the cleavage of the chromogenic thrombin substrate

— patent publication US20080199426
